Data on 2 substances can be found in patent US20200376136A1.

The target in the assay is human six-transmembrane epithelial antigen of prostate 2 (STEAP2) (human) (UniProt Q8NFT2). Nature of the assay: FACS on HEK293 cells (low STEAP2), MFI fold above unstained, average at 100-300 nM antibody.
human six-transmembrane epithelial antigen of prostate 2 (STEAP2) (human), sequence (Q8NFT2 whole entry): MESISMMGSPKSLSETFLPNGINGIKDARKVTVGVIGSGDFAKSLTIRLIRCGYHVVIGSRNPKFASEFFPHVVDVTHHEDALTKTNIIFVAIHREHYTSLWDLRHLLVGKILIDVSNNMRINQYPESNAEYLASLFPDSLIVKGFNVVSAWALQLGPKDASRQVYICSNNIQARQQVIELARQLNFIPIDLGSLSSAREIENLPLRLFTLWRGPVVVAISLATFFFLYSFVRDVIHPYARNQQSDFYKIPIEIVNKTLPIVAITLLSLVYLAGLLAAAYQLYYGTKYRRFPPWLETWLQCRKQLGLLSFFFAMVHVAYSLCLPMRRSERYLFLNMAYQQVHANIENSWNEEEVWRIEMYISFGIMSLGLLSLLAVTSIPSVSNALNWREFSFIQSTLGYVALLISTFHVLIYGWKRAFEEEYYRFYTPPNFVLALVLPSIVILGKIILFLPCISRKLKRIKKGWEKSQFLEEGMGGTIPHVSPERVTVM

Substance hIgG1 Isotype Control-I (antibody) displayed an Avg F.A.B (fold above background) (fold above background) of 1. For the substance hIgG1 Isotype Control-II (antibody), the Avg F.A.B (fold above background) (fold above background) was found to be 1.7.
